Reference: the supplement of paper PMC9170038

Tested on: MS2 coat protein
Assay: apparent KD of MS2 coat protein; higher = weaker reporter binding
Details: Eterna round: R107
In short: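 SNAP-549-labelled MS2 coat protein was titrated onto designed RNA switches that had been transcribed on-chip from Illumina sequencing clusters. Amounts doubled from 0.7 or 1.5 nM to 3 µM in 100 mM Tris-HCl pH 7.5, 80 mM KCl, 4 mM MgCl2, with constant ligand or without. Apparent KD is the median per design of normalised cluster binding-curve fits.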

[1] = input ligand: theophylline 20 uM
[2] = input ligand: theophylline 2 mM
[3] = input ligand: tryptophan 2.4 mM

How did the “apparent KD of MS2 coat protein” value (input ligand: arginine 13.2 mM) turn out when “UGUAUGUGAUCUGAUACCAGCUAGCGGAAACGCAAGCUUGAGGAUCACCCAAGUGGAAUAAGCCCUUGGCAGCAGAUCGCAUACU [Denovo 5 #StaticStem #AlternativeMS2]” was run?
Its value is 0.215 µM.

And the “apparent KD of MS2 coat protein” value (input ligand: none)?
The value was 0.266 µM.

And the “apparent KD of MS2 coat protein” value [1]?
Its value is 0.197 µM.

And the “apparent KD of MS2 coat protein” value [2]?
Its value is 0.0158 µM.

What about the “apparent KD of MS2 coat protein” value [3] of the same sequence?
Its value is 0.376 µM.

How did the “apparent KD of MS2 coat protein” value (input ligand: arginine 13.2 mM) turn out when “UGUAUGUGAUCUGAUACCAGCUUAAUAACAUGAGCAUCAGCCAUGUGGAGCGGAAACGCUAGCCCUUGGCAGCAGAUCGCAUACU [Denovo 11 #StaticStem #AlternativeMS2]” was run?
The value was 0.101 µM.

What about the “apparent KD of MS2 coat protein” value (input ligand: none) of the same sequence?
The value was 0.143 µM.

What about the “apparent KD of MS2 coat protein” value [1] of the same sequence?
The value was 0.079 µM.

What about the “apparent KD of MS2 coat protein” value [2] of the same sequence?
Its value is 0.0132 µM.

What about the “apparent KD of MS2 coat protein” value [3] of the same sequence?
Its value is 0.129 µM.

What does the source list for “UGUAUGUGAUCUGAUACCAGCUUUGAUAACCUGAGGAUCACCCUGGUAAGGCGAAAGCCAAGCCCUUGGCAGCAGAUCGCAUACU”?
apparent KD of MS2 coat protein (input ligand: arginine 13.2 mM): 0.0401 µM; apparent KD of MS2 coat protein (input ligand: none): 0.0345 µM; apparent KD of MS2 coat protein [1]: 0.0345 µM; apparent KD of MS2 coat protein [2]: 0.0219 µM; apparent KD of MS2 coat protein [3]: 0.0373 µM

“UGUAUGUGAUCUGAUACCAGUCCAACUGGUAAAACCUGAGGAACACCCAGGUAAAAUUGGGACCCUUGGCAGCAGAUCGCAUACU” was tested. Which “apparent KD of MS2 coat protein” value (input ligand: arginine 13.2 mM) did it give?
Its value is 0.0995 µM.

What about the “apparent KD of MS2 coat protein” value (input ligand: none) of the same sequence?
Its value is 0.246 µM.

What about the “apparent KD of MS2 coat protein” value [1] of the same sequence?
Its value is 0.147 µM.

And the “apparent KD of MS2 coat protein” value [2]?
Its value is 0.023 µM.

What about the “apparent KD of MS2 coat protein” value [3] of the same sequence?
The value was 0.264 µM.

With “UGUAUGUGAUUUGAUACCAGACCAACUGGUAAAACAUGAGGAUCACCCAUGUAAACUUGGGUCCCUUGGCAGCAAAUCGCAUACU [SSTheo B #22]” as the sequence, how does the “apparent KD of MS2 coat protein” value (input ligand: arginine 13.2 mM) read?
Its value is 0.0678 µM.

What about the “apparent KD of MS2 coat protein” value [1] of the same sequence?
The value was 0.0456 µM.

And the “apparent KD of MS2 coat protein” value [3]?
Its value is 0.0827 µM.

“UGUAUGUGAUUUGAUACCAGACCAGCGGGUGUUACUUGAGGAACACCCAAGUAGGUUUGGGUCCCUUGGCAGCAAAUCGCAUACU [SS Theo B #24 Ms9]” was tested. Which “apparent KD of MS2 coat protein” value (input ligand: arginine 13.2 mM) did it give?
The value was 0.452 µM.

What about the “apparent KD of MS2 coat protein” value (input ligand: none) of the same sequence?
Its value is 0.0392 µM.

What about the “apparent KD of MS2 coat protein” value [1] of the same sequence?
The value was 0.309 µM.

What about the “apparent KD of MS2 coat protein” value [2] of the same sequence?
The value was 1.41 µM.

What about the “apparent KD of MS2 coat protein” value [3] of the same sequence?
Its value is 0.079 µM.

Which results are given for “UGUAUGUGAUUUGAUACCAGACCAGCUGGUGGUACAUGAGCAUCAGCCAUGUAGGUUUGGGUCCCUUGGCAGCAAAUCGCAUACU [SS Theo B #24 Ms2]”?
apparent KD of MS2 coat protein (input ligand: arginine 13.2 mM): 0.0207 µM; apparent KD of MS2 coat protein (input ligand: none): 0.021 µM; apparent KD of MS2 coat protein [1]: 0.0287 µM; apparent KD of MS2 coat protein [2]: 0.0193 µM; apparent KD of MS2 coat protein [3]: 0.0214 µM

How did the “apparent KD of MS2 coat protein” value (input ligand: arginine 13.2 mM) turn out when “UGUAUGUGAUUUGAUACCAGACCAGCUGGUGGUCCAUGAGGAACACCCAUGGAGGUUUGGGUCCCUUGGCAGCAAAUCGCAUACU [SS Theo B #24 Ms20]” was run?
Its value is 0.152 µM.

What about the “apparent KD of MS2 coat protein” value [1] of the same sequence?
Its value is 0.13 µM.

What about the “apparent KD of MS2 coat protein” value [2] of the same sequence?
Its value is 0.0745 µM.

And the “apparent KD of MS2 coat protein” value [3]?
Its value is 0.0897 µM.

What does the source list for “UGUAUGUGAUUUGAUACCAGACCAGCUGGUGUUAGAUGAGGAUCACCCAUCUAGGUUUGGGUCCCUUGGCAGCAAAUCGCAUACU [SS Theo B #24 Ms13]”?
apparent KD of MS2 coat protein (input ligand: arginine 13.2 mM): 0.018 µM; apparent KD of MS2 coat protein (input ligand: none): 0.018 µM; apparent KD of MS2 coat protein [1]: 0.0221 µM; apparent KD of MS2 coat protein [2]: 0.0114 µM; apparent KD of MS2 coat protein [3]: 0.018 µM

Which results are given for “UGUAUGUGAUUUGAUACCAGAUCAGCUGGUUAUACAUGAGGAUCACCCAUGUUACUUUGGGUCCCUUGGCAGCAAAUCGCAUACU [SSTheo B #26]”?
apparent KD of MS2 coat protein (input ligand: arginine 13.2 mM): 0.165 µM; apparent KD of MS2 coat protein [1]: 0.355 µM; apparent KD of MS2 coat protein [3]: 0.535 µM

With “UGUCACUGUUUGGUUCAAUGAAGAAGAAUUCGAGGACCGGUACGGCCGCCACUCGCUAUGCAACAUGAGGAUCACCCAUGUAAAA [theeternabot_exclusion_MS2_Trp_A_31]” as the sequence, how does the “apparent KD of MS2 coat protein” value (input ligand: arginine 13.2 mM) read?
The value was 0.0134 µM.

And the “apparent KD of MS2 coat protein” value [1]?
The value was 0.017 µM.

What about the “apparent KD of MS2 coat protein” value [2] of the same sequence?
Its value is 0.0173 µM.

For “UGUCAGCGAAAGUUGACAUGUCUUACCGGUCGAGGACCGGUACGGCCGCCACUCGAUCACUCGCACAUGAGGAUCACCCAUGUUG [SS Tryp A #21]”, which “apparent KD of MS2 coat protein” value (input ligand: arginine 13.2 mM) is on record?
Its value is 0.0211 µM.

What about the “apparent KD of MS2 coat protein” value [1] of the same sequence?
Its value is 0.0246 µM.

And the “apparent KD of MS2 coat protein” value [2]?
Its value is 0.0238 µM.

With “UGUCCGUGAUCGGCCGCCACUCAACAAACCUGUGGAAACUGACAUGAGGAUCACCCAUGUUCUUGGAGGACCGGGAUUGCUUCGA [theeternabot_sameState_MS2_Trp_B_4]” as the sequence, how does the “apparent KD of MS2 coat protein” value (input ligand: arginine 13.2 mM) read?
The value was 0.0167 µM.

And the “apparent KD of MS2 coat protein” value [1]?
The value was 0.0197 µM.

And the “apparent KD of MS2 coat protein” value [2]?
Its value is 0.0185 µM.

What does the source list for “UGUCGAAACUGAAGGAGCGAGAUGACAACAUUGGGUCUAACAUGAGGAUCACCCAUGUAAUCUCAGGUAGGUCGCAGUGACAAAA [Exclusion Arginine B GF 15]”?
apparent KD of MS2 coat protein (input ligand: arginine 13.2 mM): 0.0645 µM; apparent KD of MS2 coat protein (input ligand: none): 0.0947 µM; apparent KD of MS2 coat protein [1]: 0.123 µM; apparent KD of MS2 coat protein [2]: 0.133 µM; apparent KD of MS2 coat protein [3]: 0.121 µM

Which results are given for “UGUGGGCGCACGGCCGCCACUGUCUUCAUCUGUUUGUCUACAUGAGGAUCACCCAUGUUGGUUUACAGGACCGGGUGCAUCUAUG [SSTryp B #12]”?
apparent KD of MS2 coat protein (input ligand: arginine 13.2 mM): 0.0395 µM; apparent KD of MS2 coat protein [1]: 0.0808 µM; apparent KD of MS2 coat protein [2]: 0.0521 µM

What does the source list for “UGUGGGUCCGAAGAUACCAGCCAGCACAGCAUGUGUUUAAACAUGAGGAUCACCCAUGUCGGCCCUUGGCAGCUUGGUUUGGACG [theeternabot_exclusion_MS2_Theo_B_7]”?
apparent KD of MS2 coat protein (input ligand: arginine 13.2 mM): 0.0155 µM; apparent KD of MS2 coat protein [1]: 0.0198 µM; apparent KD of MS2 coat protein [3]: 0.0158 µM

For “UGUUUGGUGCGCGAGUGUUGGAUAAAUGAUACCAGUGUAGAUGUACGCCCUUGGCAGCGUAUCCGAACAUGAGGAUCACCCAUGU [5.aB]”, which “apparent KD of MS2 coat protein” value (input ligand: arginine 13.2 mM) is on record?
The value was 0.0267 µM.

And the “apparent KD of MS2 coat protein” value [1]?
Its value is 0.0449 µM.

What about the “apparent KD of MS2 coat protein” value [3] of the same sequence?
Its value is 0.0363 µM.

“UGUUUGGUGCGCGAGUGUUGGAUAAUUGAUACCAGUGUAGAUGUACGCCCUUGGCAGCGAAUCCGAACAUGAGGAUCACCCAUGU [5.aA]” was tested. Which “apparent KD of MS2 coat protein” value (input ligand: arginine 13.2 mM) did it give?
The value was 0.0367 µM.

What about the “apparent KD of MS2 coat protein” value [1] of the same sequence?
Its value is 0.0456 µM.

And the “apparent KD of MS2 coat protein” value [3]?
The value was 0.0302 µM.

“UGUUUUGUGGGAAGGAGCGCAUACUUCACAUGAGGAUCACCCAUGUCAAGACGUGAGUCAGUGCAGGUAGGUCGCCUAGUUAAGA [Same State - Arginine B (Freestyle 16)]” was tested. Which “apparent KD of MS2 coat protein” value (input ligand: arginine 13.2 mM) did it give?
The value was 0.0528 µM.

And the “apparent KD of MS2 coat protein” value (input ligand: none)?
The value was 0.0704 µM.

And the “apparent KD of MS2 coat protein” value [1]?
The value was 0.059 µM.

What about the “apparent KD of MS2 coat protein” value [2] of the same sequence?
Its value is 0.0619 µM.

What about the “apparent KD of MS2 coat protein” value [3] of the same sequence?
Its value is 0.0493 µM.

How did the “apparent KD of MS2 coat protein” value (input ligand: arginine 13.2 mM) turn out when “UUAAAGGCACCUCAUGGGACUAUAAACCCGCGAGGACCGGUACGGCCGCCACUCGAAUAUCAACAUGAGGAUCACCCAUGUGGUU [theeternabot_exclusion_MS2_Trp_A_6]” was run?
Its value is 0.0162 µM.

And the “apparent KD of MS2 coat protein” value [1]?
Its value is 0.0323 µM.

What about the “apparent KD of MS2 coat protein” value [2] of the same sequence?
The value was 0.0296 µM.

What does the source list for “UUAAAUGUGACGGAUACCAGCGUGUUGUAGAACAUGAGGAUCACCCAUGUAGUGAUCAUGCGCCCUUGGCAGCUGGUAUGUUUGA [7.aA]”?
apparent KD of MS2 coat protein (input ligand: arginine 13.2 mM): 0.189 µM; apparent KD of MS2 coat protein [1]: 0.543 µM; apparent KD of MS2 coat protein [3]: 0.48 µM
